Data reported in publication PMC7036284 (Chemical research in toxicology, 2019).
Positions count from the first letter of the chain named.

B1: wild-type Tsa1 (recombinant, 6X-His tagged) (enzyme, S. cerevisiae)
chain: MVAQVQKQAPTFKKTAVVDGVFDEVSLDKYKGKYVVLAFIPLAFTFVCPTEIIAFSEAAKKFEEQGAQVLFASTDSEYSLLAWTNIPRKEGGLGPINIPLLADTNHSLSRDYGVLIEEEGVALRGLFIIDPKGVIRHITINDLPVGRNVDEALRLVEAFQWTDKNGTVLPCNWTPGAATIKPTVEDSKEYFEAANK
B2: F^44A Tsa1 (recombinant, 6X-His tagged) (enzyme, S. cerevisiae)
chain: B1 chain with F44A
B3: Y^78A Tsa1 (recombinant, 6X-His tagged) (enzyme, S. cerevisiae)
chain: B1 chain with Y78A
B4: FYA Tsa1 (F^44A,Y^78A; recombinant, 6X-His tagged) (enzyme, S. cerevisiae)
chain: B1 chain with F44A, Y78A
B5: F^44L Tsa1 (recombinant, 6X-His tagged) (enzyme, S. cerevisiae)
chain: B1 chain with F44L
B6: Y^78L Tsa1 (recombinant, 6X-His tagged) (enzyme, S. cerevisiae)
chain: B1 chain with Y78L
B7: FYL Tsa1 (F^44L,Y^78L; recombinant, 6X-His tagged) (enzyme, S. cerevisiae)
chain: B1 chain with F44L, Y78L

Target: the molecule itself
Test: native gel or EMSA

| Protein | stoichiometry N |
| --- | --- |
| B1 | 10 |
| B2 | 2 |

Target: the molecule itself
Test: SEC-MALS

| Protein | stoichiometry N |
| --- | --- |
| B3 | 2 |
| B4 | 2 |
| B5 | 2 |
| B6 | 2 |
| B7 | 2 |
